Assay results published in patent US20250197496A1.

Experiments:
[1] = biological target: T1, human ULBP2 (26-216) P41A on yeast (human) (UniProt Q9BZM5); experiment: yeast display FACS, 1 nM
T1 sequence: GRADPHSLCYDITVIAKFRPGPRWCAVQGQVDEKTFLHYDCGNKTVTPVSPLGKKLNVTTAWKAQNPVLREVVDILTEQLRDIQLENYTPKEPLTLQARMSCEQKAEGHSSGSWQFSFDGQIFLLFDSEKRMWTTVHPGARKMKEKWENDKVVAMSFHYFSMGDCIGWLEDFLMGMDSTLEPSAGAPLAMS

[2] = biological target: Cynomolgus ULBP2 (26-216) fused to hIgG1 Fc (cynomolgus; human); experiment: SPR, biotinylated antigen on SA chip
[3] = biological target: cynomolgus ULBP2 (26-216) displayed on yeast (cynomolgus); experiment: flow cytometry on yeast displaying ULBP2; unstained control 385
[4] = biological target: T2, human ULBP2 (26-216) R44A on yeast (human) (UniProt Q9BZM5); experiment: yeast display FACS, 1 nM
T2 sequence: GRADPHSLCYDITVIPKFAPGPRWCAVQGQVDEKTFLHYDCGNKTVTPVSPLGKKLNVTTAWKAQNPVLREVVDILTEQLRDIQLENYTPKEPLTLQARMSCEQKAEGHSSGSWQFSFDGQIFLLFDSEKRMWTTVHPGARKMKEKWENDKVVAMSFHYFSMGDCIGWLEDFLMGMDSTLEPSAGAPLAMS

Binder | Gate 1 Freq. of Total [1] [%] | Gate 2 Freq. of Total [1] [%] | Gate 3 Freq. of Total [1] [%] | Kd [2] [pM] | koff [2] [s⁻¹] | kon [2] [M⁻¹ s⁻¹] | MFI [3] | Gate 1 Freq. of Total [4] [%] | Gate 2 Freq. of Total [4] [%] | Gate 3 Freq. of Total [4] [%]
E12 (antibody, V domains shown) VH: QVQLVQSGAEVKKPGASVKVSCKASGYTFTNYDINWVRQAPGQGLEWMGWIYPGDGSTYYNEKFKGRVTMTRDTSTSTVYMELSSLRSEDTAVYYCARSGDYGLYYFDYWGQGTLVTVSS VL: EIVLTQSPATLSLSPGERATLSCRASQSIGTSIHWYQQKPGQAPRLLIYFASESISGIPARFSGSGSGTDFTLTISSLEPEDFAVYYCQQSNSWPLYTFGGGTKVEIK | 0.098 | 0.41 | 4.73 | 534 | 0.00182 | 3.41e+06 | 11700 | – | – | –
A06 (antibody, V domains shown) VH: EVQLVQSGAEVKKPGESLKISCKGSGYAFSTSWMNWVRQMPGKGLEWMGRIYPGDGDTNYNGNFKGQVTISADKSISTAYLQWSSLKASDTAMYYCARGGELRLEAMDSWGQGTLVTVSS VL: EIVMTQSPATLSLSPGERITLSCSASSSIHSNYLHWYQQKPGQAPRLLIYRTSNLASGIPARFSGSGSGTDFTLTISSLQPEDFAVYYCQQGFSIPFTFGQGTKLEIK | 0.052 | 0.32 | 2.61 | – | – | – | 551 | 0.19 | 0.8 | 1.58
